Reference: patent publication US20140058068A1 (UNIVERSITY OF MIAMI, published 2014)
Square brackets hold non-standard residues; d marks the D form. Ends that are not written are not given here. * marks the point of attachment. Desaminotyrosyl = O=C(CCc1ccc(O)cc1)*; NMeY = CN[C@@H](Cc1ccc(O)cc1)C(=O)O; Nle = CCCC[C@H](N)C(=O)O; Orn = NCCC[C@H](N)C(=O)O; Abu = CC[C@H](N)C(=O)O; Aoc = NCCCCCCCC(=O)O; Ava = NCCCCC(=O)O

T1: GHRH receptor of human pituitary membrane homogenates (human, UniProt Q02643 23-423)
T1 construct: whole, on cells; Native receptor in pituitary membrane homogenates, not intact cells; also called hGH-RH receptor
T1 sequence (looked up): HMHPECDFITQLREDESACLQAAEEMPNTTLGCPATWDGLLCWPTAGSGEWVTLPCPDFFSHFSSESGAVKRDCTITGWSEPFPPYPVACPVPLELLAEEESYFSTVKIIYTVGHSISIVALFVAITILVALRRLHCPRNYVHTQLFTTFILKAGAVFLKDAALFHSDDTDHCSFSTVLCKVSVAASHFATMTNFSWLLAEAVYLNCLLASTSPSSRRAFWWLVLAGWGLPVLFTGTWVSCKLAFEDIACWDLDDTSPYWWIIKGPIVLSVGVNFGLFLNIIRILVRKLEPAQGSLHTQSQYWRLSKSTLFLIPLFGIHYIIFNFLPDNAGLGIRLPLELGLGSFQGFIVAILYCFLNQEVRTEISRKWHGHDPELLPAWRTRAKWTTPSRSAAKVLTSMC

B1: [Dat^1, D-Ala^2, Orn^12, Abu^15, Orn^21, Nle^27, Asp^28]hGH-RH(1-29)NH-CH3 (peptide)
peptide: [Desaminotyrosyl][dA]DAIFTNSYR[Orn]VL[Abu]QLSAR[Orn]LLQDI[Nle]DR-NHMe
SMILES: CCCC[C@H](NC(=O)[C@@H](NC(=O)[C@H](CC(=O)O)NC(=O)[C@H](CCC(N)=O)NC(=O)[C@H](CC(C)C)NC(=O)[C@H](CC(C)C)NC(=O)[C@H](CCCN)NC(=O)[C@H](CCCNC(=N)N)NC(=O)[C@H](C)NC(=O)[C@H](CO)NC(=O)[C@H](CC(C)C)NC(=O)[C@H](CCC(N)=O)NC(=O)[C@H](CC)NC(=O)[C@H](CC(C)C)NC(=O)[C@@H](NC(=O)[C@H](CCCN)NC(=O)[C@H](CCCNC(=N)N)NC(=O)[C@H](Cc1ccc(O)cc1)NC(=O)[C@H](CO)NC(=O)[C@H](CC(N)=O)NC(=O)[C@@H](NC(=O)[C@H](Cc1ccccc1)NC(=O)[C@@H](NC(=O)[C@H](C)NC(=O)[C@H](CC(=O)O)NC(=O)[C@@H](C)NC(=O)CCc1ccc(O)cc1)[C@@H](C)CC)[C@@H](C)O)C(C)C)[C@@H](C)CC)C(=O)N[C@@H](CC(=O)O)C(=O)N[C@@H](CCCNC(=N)N)C(=O)NC
B2: [Dat^1, Gln^8, His^11, Orn^12, Abu^15, His^20, Orn^21, Nle^27, Asp^28]hGH-RH(1-29)NH-CH3 (peptide)
peptide: [Desaminotyrosyl]ADAIFTQSYH[Orn]VL[Abu]QLSAH[Orn]LLQDI[Nle]DR-NHMe
SMILES: CCCC[C@H](NC(=O)[C@@H](NC(=O)[C@H](CC(=O)O)NC(=O)[C@H](CCC(N)=O)NC(=O)[C@H](CC(C)C)NC(=O)[C@H](CC(C)C)NC(=O)[C@H](CCCN)NC(=O)[C@H](Cc1c[nH]cn1)NC(=O)[C@H](C)NC(=O)[C@H](CO)NC(=O)[C@H](CC(C)C)NC(=O)[C@H](CCC(N)=O)NC(=O)[C@H](CC)NC(=O)[C@H](CC(C)C)NC(=O)[C@@H](NC(=O)[C@H](CCCN)NC(=O)[C@H](Cc1c[nH]cn1)NC(=O)[C@H](Cc1ccc(O)cc1)NC(=O)[C@H](CO)NC(=O)[C@H](CCC(N)=O)NC(=O)[C@@H](NC(=O)[C@H](Cc1ccccc1)NC(=O)[C@@H](NC(=O)[C@H](C)NC(=O)[C@H](CC(=O)O)NC(=O)[C@H](C)NC(=O)CCc1ccc(O)cc1)[C@@H](C)CC)[C@@H](C)O)C(C)C)[C@@H](C)CC)C(=O)N[C@@H](CC(=O)O)C(=O)N[C@@H](CCCNC(=N)N)C(=O)NC
notes: also called Peptide 27413
B3: [N-Me-Tyr^1, Orn^12, Abu^15, Orn^21, Nle^27, Asp^28, Amc^30]hGH-RH(1-30)NH2 (peptide)
peptide: [NMeY]ADAIFTNSYR[Orn]VL[Abu]QLSAR[Orn]LLQDI[Nle]DR[Aoc]-NH2
modifications: N-terminus assumed
SMILES: CCCC[C@H](NC(=O)[C@@H](NC(=O)[C@H](CC(=O)O)NC(=O)[C@H](CCC(N)=O)NC(=O)[C@H](CC(C)C)NC(=O)[C@H](CC(C)C)NC(=O)[C@H](CCCN)NC(=O)[C@H](CCCNC(=N)N)NC(=O)[C@H](C)NC(=O)[C@H](CO)NC(=O)[C@H](CC(C)C)NC(=O)[C@H](CCC(N)=O)NC(=O)[C@H](CC)NC(=O)[C@H](CC(C)C)NC(=O)[C@@H](NC(=O)[C@H](CCCN)NC(=O)[C@H](CCCNC(=N)N)NC(=O)[C@H](Cc1ccc(O)cc1)NC(=O)[C@H](CO)NC(=O)[C@H](CC(N)=O)NC(=O)[C@@H](NC(=O)[C@H](Cc1ccccc1)NC(=O)[C@@H](NC(=O)[C@H](C)NC(=O)[C@H](CC(=O)O)NC(=O)[C@H](C)NC(=O)[C@H](Cc1ccc(O)cc1)NC)[C@@H](C)CC)[C@@H](C)O)C(C)C)[C@@H](C)CC)C(=O)N[C@@H](CC(=O)O)C(=O)N[C@@H](CCCNC(=N)N)C(=O)NCCCCCCCC(N)=O
notes: also called Peptide 21301
B4: [Dat^1, Gln^8, Orn^12, Abu^15, Orn^21, Nle^27, Asp^28, Apa^30]hGH-RH(1-30)NH2 (peptide)
peptide: [Desaminotyrosyl]ADAIFTQSYR[Orn]VL[Abu]QLSAR[Orn]LLQDI[Nle]DR[Ava]-NH2
SMILES: CCCC[C@H](NC(=O)[C@@H](NC(=O)[C@H](CC(=O)O)NC(=O)[C@H](CCC(N)=O)NC(=O)[C@H](CC(C)C)NC(=O)[C@H](CC(C)C)NC(=O)[C@H](CCCN)NC(=O)[C@H](CCCNC(=N)N)NC(=O)[C@H](C)NC(=O)[C@H](CO)NC(=O)[C@H](CC(C)C)NC(=O)[C@H](CCC(N)=O)NC(=O)[C@H](CC)NC(=O)[C@H](CC(C)C)NC(=O)[C@@H](NC(=O)[C@H](CCCN)NC(=O)[C@H](CCCNC(=N)N)NC(=O)[C@H](Cc1ccc(O)cc1)NC(=O)[C@H](CO)NC(=O)[C@H](CCC(N)=O)NC(=O)[C@@H](NC(=O)[C@H](Cc1ccccc1)NC(=O)[C@@H](NC(=O)[C@H](C)NC(=O)[C@H](CC(=O)O)NC(=O)[C@H](C)NC(=O)CCc1ccc(O)cc1)[C@@H](C)CC)[C@@H](C)O)C(C)C)[C@@H](C)CC)C(=O)N[C@@H](CC(=O)O)C(=O)N[C@@H](CCCNC(=N)N)C(=O)NCCCCC(N)=O
notes: also called Peptide 22327
B5: [Dat^1, D-Ala^2, Orn^12, Abu^15, Orn^21, Nle^27, Asp^28, Amc^30]hGH-RH(1-30)NH2 (peptide)
peptide: [Desaminotyrosyl][dA]DAIFTNSYR[Orn]VL[Abu]QLSAR[Orn]LLQDI[Nle]DR[Aoc]-NH2
SMILES: CCCC[C@H](NC(=O)[C@@H](NC(=O)[C@H](CC(=O)O)NC(=O)[C@H](CCC(N)=O)NC(=O)[C@H](CC(C)C)NC(=O)[C@H](CC(C)C)NC(=O)[C@H](CCCN)NC(=O)[C@H](CCCNC(=N)N)NC(=O)[C@H](C)NC(=O)[C@H](CO)NC(=O)[C@H](CC(C)C)NC(=O)[C@H](CCC(N)=O)NC(=O)[C@H](CC)NC(=O)[C@H](CC(C)C)NC(=O)[C@@H](NC(=O)[C@H](CCCN)NC(=O)[C@H](CCCNC(=N)N)NC(=O)[C@H](Cc1ccc(O)cc1)NC(=O)[C@H](CO)NC(=O)[C@H](CC(N)=O)NC(=O)[C@@H](NC(=O)[C@H](Cc1ccccc1)NC(=O)[C@@H](NC(=O)[C@H](C)NC(=O)[C@H](CC(=O)O)NC(=O)[C@@H](C)NC(=O)CCc1ccc(O)cc1)[C@@H](C)CC)[C@@H](C)O)C(C)C)[C@@H](C)CC)C(=O)N[C@@H](CC(=O)O)C(=O)N[C@@H](CCCNC(=N)N)C(=O)NCCCCCCCC(N)=O
notes: also called Peptide 21300
B6: [Dat^1, Gln^8, Orn^12, Abu^15, Orn^21, Nle^27, Asp^28]hGH-RH(1-29)NH-CH3 (peptide)
peptide: [Desaminotyrosyl]ADAIFTQSYR[Orn]VL[Abu]QLSAR[Orn]LLQDI[Nle]DR-NHMe
SMILES: CCCC[C@H](NC(=O)[C@@H](NC(=O)[C@H](CC(=O)O)NC(=O)[C@H](CCC(N)=O)NC(=O)[C@H](CC(C)C)NC(=O)[C@H](CC(C)C)NC(=O)[C@H](CCCN)NC(=O)[C@H](CCCNC(=N)N)NC(=O)[C@H](C)NC(=O)[C@H](CO)NC(=O)[C@H](CC(C)C)NC(=O)[C@H](CCC(N)=O)NC(=O)[C@H](CC)NC(=O)[C@H](CC(C)C)NC(=O)[C@@H](NC(=O)[C@H](CCCN)NC(=O)[C@H](CCCNC(=N)N)NC(=O)[C@H](Cc1ccc(O)cc1)NC(=O)[C@H](CO)NC(=O)[C@H](CCC(N)=O)NC(=O)[C@@H](NC(=O)[C@H](Cc1ccccc1)NC(=O)[C@@H](NC(=O)[C@H](C)NC(=O)[C@H](CC(=O)O)NC(=O)[C@H](C)NC(=O)CCc1ccc(O)cc1)[C@@H](C)CC)[C@@H](C)O)C(C)C)[C@@H](C)CC)C(=O)N[C@@H](CC(=O)O)C(=O)N[C@@H](CCCNC(=N)N)C(=O)NC
notes: also called Peptide 27407

Target: T1, GHRH receptor of human pituitary …
Experiment: radioligand competition, 125I-JV-1-42 (~0.2 nM) as competitor, human pituitary membrane homogenates
From the text: Normal human pituitaries were purchased from the National Hormone and Peptide Program (A. F. Parlow, Los Angeles, County Harbor-UCLA Medical Center, Torrance, Calif.).

Row | Binder | IC50 [nM] | Relative affinity (Binding potency) vs JI-38
1 | [NMeY][dA]DAIFTTSYR[Orn]VL[Abu]QLSAR[Orn]LLQDI[Nle]DR-NHMe [[N-Me-Tyr^1, D-Ala^2, Thr^8, Orn^12, Abu^15, Orn^21, Nle^27, Asp^28]hGH-RH(1-29)NH-CH3] | 0.83 | 5.24 fold, JI-38 = 1
2 | B1 | 3.35 | 1.3 fold, JI-38 = 1
3 | [NMeY]ADAIFTQSYR[Orn]VL[Abu]QLSAR[Orn]LLQDI[Nle]DR-NHMe (also called Peptide 27406) [[N-Me-Tyr^1, Gln^8, Orn^12, Abu^15, Orn^21, Nle^27, Asp^28]hGH-RH(1-29)NH-CH3] | 0.3 | 14.5 fold, JI-38 = 1
4 | B2 | 2.45 | 1.78 fold, JI-38 = 1
5 | [NMeY]ADAIFTQSYR[Orn]VL[Abu]QLSAR[Orn]LLQDI[Nle]SR-NHMe [[N-Me-Tyr^1, Gln^8, Orn^12, Abu^15, Orn^21, Nle^27]hGH-RH(1-29)NH-CH3] | 1.08 | 4.03 fold, JI-38 = 1
6 | B3 | 2.99 | 1.45 fold, JI-38 = 1
7 | B4 | 1.99 | 2.18 fold, JI-38 = 1
8 | [NMeY]ADAIFTQSYR[Orn]VL[Abu]QLSAR[Orn]LLQDI[Nle]DR[Ava]-NH2 (also called Peptide 22325) [[N-Me-Tyr^1, Gln^8, Orn^12, Abu^15, Orn^21, Nle^27, Asp^28, Apa^30]hGH-RH(1-30)NH2] | 3.8 | 1.14 fold, JI-38 = 1
9 | [NMeY][dA]DAIFTQSYR[Orn]VL[Abu]QLSAR[Orn]LLQDI[Nle]DR-NHEt (also called Peptide 28420) [[N-Me-Tyr^1, D-Ala^2, Gln^8, Orn^12, Abu^15, Orn^21, Nle^27, Asp^28]hGH-RH(1-29)NH-CH2-CH3] | – | 8.37 fold, JI-38 = 1
10 | B5 | 3.61 | 1.2 fold, JI-38 = 1
11 | B6 | 3 | 1.45 fold, JI-38 = 1
